The text below walks through data of patent US20250152759A1, “SINGLE-DOMAIN ANTIBODIES AND VARIANTS THEREOF AGAINST MET” (Wisconsin Alumni Research Foundation, priority 2023, published 2025).

Assay [1] concerns MET, AKT and ERK phosphorylation. The assay is described as follows: Western blot of MET signaling, NSCLC and HeLa cell lines. It is filed as cell-based, human. The conditions noted are these: 5 nM, 4 h, positive control. The protocol:
To determine if 1E7-Fc by itself was a therapeutic and inhibited MET signaling, as has been seen with other MET antibodies such as onartuzumab and emibetuzumab (De Mello et al. 2020), we performed a cell proliferation assay and Western blot to query effects of 1E7-Fc on cell behavior and downstream signaling pathways. Cell viability was measured using a panel of the same four cell lines. […] In contrast, treatment with the FDA-approved MET TKI, capmatinib, blocked MET, AKT, and ERK phosphorylation, as anticipated (FIG. 4B).
Cells were seeded in 10 cm dishes and treated with either control (PBS), 10 nM, or 100 nM 1E7-Fc when cells were reached about 75% confluency, and then cells were harvested 4 h after treatment. Five nM Capmatinib was used as a positive control. Cell lysates were generated as previously described (SenthilKumar et al. 2020).
(In general: A western blot detects proteins with antibodies after separation by electrophoresis.)

Assay [2] has the same test system. The assay is described as follows: Immunoblot of MET downstream signaling, Detroit 562 and T-47D. It is filed as cell-based, human. The note with it: 5 nM, positive control. How it is done: To determine if 1E7-Fc by itself was therapeutic and inhibited MET signaling, both cell proliferation assays and western blotting examining MET downstream signaling were evaluated in Detroit […] cell and T-47D as a negative control. The MET tyrosine kinase inhibitor capmatinib was used as a positive control for MET downstream signaling.
Cells were seeded in 10-cm dishes and treated with either control (i.e., PBS), 10 nM, or 100 nM 1E7-Fc when cells reached about 75% confluency, and then cells were harvested 4, 24, or 48 h after treatment. Capmatinib (5 nM) was used as a positive control for inhibition of MET signaling. Cell lysates were prepared as previously described (Könning et al. 2017). Equal amounts of protein were analyzed by sodium dodecyl-sulfate polyacrylamide gel electrophoresis (SDS-PAGE), transferred to polyvinylidene fluoride membranes, and probed with specific primary antibodies. Targets were detected with horseradish peroxidase (HRP)-conjugated secondary antibodies (BioRad) using Enhanced Chemiluminescence western blot substrates (Pierce) and imaged on a LI-COR Odyssey Fc. The specific antibodies are as listed: MET, phospho-MET (Tyr1234/1235), AKT, phosphor-AKT (Ser473), p44/42 MAPK (Erk1/2), phosphor-p44/42 MAPK (Erk1/2) *Thr202/Try204), GAPDH.

Another assay deals with T1, murine MET (Mus musculus, UniProt P16056).
T1 construct: biotin (biotinylated)
Description: Dilution ELISA counter screen on murine MET. It counts as binding. The text has this: (§1) Next, we evaluated the ability of the three unique VHH clones (1E7, 1A2, and 2G9) to bind murine and rhesus monkey MET by performing ELISA counter screens. […] The three clones were expressed and purified for additional testing to identify a lead VHH. Biolayer interferometry (BLI) was next used to determine the affinity of each VHH domain for MET (FIGS. 3B-D, Table 7). […] The BLI and dilution ELISA data combined determined that 1E7 was the lead clone to for development into a VHH-Fc targeting MET.
(§2) Dilution ELISA: MaxiSorp plates were prepared as described above. 50 μL of biotinylated human cMET, murine cMET, or rhesus macaque cMET was added to the wells. 1E7 monomeric VHH was serial diluted from 1 μM to 15.6 nM in PBS, 1% BSA < and 0.005% Tween20 and added to each well. Wells with protein but no 1E7 VHH were used as a negative control. 1E7 binding was detected, as described above.
On the technique in general: An ELISA detects its analyte on a solid surface through an enzyme-linked reagent.

The target in assay [3] is T2, human MET (Homo sapiens, UniProt P08581). The assay is described as follows: Dilution ELISA on human MET. It counts as binding. The arrangement: Single-domain constructs specific to MET extracellular domain were identified from a naïve VHH antibody phage display library; biotin (biotinylated). The note with it: for specificity for human versus rhesus macaque and murine MET: ELISA, FIG. 3A.
Description: as §1, §2

The target of another assay is T3, rhesus macaque MET (Macaca mulatta, UniProt F7H1K4).
T3 construct: biotin (biotinylated)
Description: Dilution ELISA counter screen on rhesus macaque MET. It counts as binding.
Description: as §1, §2

Assay [4] deals with T2, human MET. Description: Biolayer interferometry (BLI) of VHH domains on human MET. It counts as binding. The note with it: for Ka / Kd: BLI curve fit; for Ka: association rate; for binding affinity to human MET (in words): comparison of the three VHH clones. Background: In BLI a coated tip is dipped into the sample, and binding shifts an interference pattern.
The mark [5] stands for this setting: dissociation rate, unit not given.

Entries after “also recorded” stand apart in the source; their conditions may differ. Read-outs that look alike come from different tables or passages of the source.

T3 sequence (F7H1K4 25-1381): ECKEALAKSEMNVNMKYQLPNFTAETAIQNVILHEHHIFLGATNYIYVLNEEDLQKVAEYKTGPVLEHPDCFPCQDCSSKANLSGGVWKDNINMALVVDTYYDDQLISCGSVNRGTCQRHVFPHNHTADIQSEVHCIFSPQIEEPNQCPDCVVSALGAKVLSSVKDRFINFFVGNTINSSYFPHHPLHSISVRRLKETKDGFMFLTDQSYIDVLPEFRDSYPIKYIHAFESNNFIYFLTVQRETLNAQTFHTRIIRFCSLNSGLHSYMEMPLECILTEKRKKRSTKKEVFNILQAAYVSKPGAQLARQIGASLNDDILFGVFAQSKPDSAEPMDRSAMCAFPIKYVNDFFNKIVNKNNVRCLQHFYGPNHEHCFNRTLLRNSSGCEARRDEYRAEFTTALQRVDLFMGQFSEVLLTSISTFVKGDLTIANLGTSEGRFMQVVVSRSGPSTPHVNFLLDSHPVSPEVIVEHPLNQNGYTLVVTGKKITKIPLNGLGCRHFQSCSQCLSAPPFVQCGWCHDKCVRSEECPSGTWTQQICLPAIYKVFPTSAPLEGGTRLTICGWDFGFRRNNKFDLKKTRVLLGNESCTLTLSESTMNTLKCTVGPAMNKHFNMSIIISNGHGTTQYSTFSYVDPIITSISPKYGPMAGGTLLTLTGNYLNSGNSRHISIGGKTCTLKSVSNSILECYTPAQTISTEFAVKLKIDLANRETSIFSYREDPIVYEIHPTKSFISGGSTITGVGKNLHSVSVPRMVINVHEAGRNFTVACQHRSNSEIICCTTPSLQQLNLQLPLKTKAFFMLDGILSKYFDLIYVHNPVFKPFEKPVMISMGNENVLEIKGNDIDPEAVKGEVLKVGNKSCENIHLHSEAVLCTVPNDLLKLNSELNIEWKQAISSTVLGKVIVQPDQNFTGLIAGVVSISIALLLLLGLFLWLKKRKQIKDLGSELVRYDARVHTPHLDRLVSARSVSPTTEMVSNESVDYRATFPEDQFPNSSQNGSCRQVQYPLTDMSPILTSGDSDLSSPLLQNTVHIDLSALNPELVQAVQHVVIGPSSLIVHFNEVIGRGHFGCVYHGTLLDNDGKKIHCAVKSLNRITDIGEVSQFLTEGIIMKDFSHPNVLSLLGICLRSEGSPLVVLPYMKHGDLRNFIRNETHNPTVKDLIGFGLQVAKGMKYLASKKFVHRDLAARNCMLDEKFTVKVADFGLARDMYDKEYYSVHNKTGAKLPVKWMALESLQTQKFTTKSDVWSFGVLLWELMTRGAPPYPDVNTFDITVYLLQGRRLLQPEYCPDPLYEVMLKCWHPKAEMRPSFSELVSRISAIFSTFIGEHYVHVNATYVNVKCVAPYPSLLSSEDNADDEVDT
T2 sequence (P08581 25-932 limits assumed): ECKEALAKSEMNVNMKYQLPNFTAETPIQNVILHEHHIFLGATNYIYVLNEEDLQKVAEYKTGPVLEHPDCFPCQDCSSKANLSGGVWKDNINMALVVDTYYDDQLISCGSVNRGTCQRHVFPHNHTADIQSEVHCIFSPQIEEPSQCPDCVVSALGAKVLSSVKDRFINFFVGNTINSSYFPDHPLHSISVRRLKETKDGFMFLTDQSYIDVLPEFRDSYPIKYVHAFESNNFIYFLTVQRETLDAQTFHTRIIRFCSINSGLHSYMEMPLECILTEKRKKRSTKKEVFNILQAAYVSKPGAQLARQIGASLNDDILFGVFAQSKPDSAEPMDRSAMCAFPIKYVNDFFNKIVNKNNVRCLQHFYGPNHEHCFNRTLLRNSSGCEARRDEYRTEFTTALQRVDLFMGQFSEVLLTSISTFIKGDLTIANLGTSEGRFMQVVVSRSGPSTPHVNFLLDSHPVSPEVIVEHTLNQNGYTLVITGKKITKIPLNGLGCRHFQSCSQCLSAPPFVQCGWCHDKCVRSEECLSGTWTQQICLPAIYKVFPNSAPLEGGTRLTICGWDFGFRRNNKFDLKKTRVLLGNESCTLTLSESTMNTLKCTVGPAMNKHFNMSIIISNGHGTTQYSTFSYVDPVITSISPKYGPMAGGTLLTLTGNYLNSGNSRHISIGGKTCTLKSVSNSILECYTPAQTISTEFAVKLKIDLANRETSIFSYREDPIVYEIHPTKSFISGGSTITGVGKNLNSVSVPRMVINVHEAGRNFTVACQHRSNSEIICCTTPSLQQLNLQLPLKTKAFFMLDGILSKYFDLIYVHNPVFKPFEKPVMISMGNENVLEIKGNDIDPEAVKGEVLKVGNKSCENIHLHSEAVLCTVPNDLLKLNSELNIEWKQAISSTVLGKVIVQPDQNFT
T1 sequence (P16056 25-1379): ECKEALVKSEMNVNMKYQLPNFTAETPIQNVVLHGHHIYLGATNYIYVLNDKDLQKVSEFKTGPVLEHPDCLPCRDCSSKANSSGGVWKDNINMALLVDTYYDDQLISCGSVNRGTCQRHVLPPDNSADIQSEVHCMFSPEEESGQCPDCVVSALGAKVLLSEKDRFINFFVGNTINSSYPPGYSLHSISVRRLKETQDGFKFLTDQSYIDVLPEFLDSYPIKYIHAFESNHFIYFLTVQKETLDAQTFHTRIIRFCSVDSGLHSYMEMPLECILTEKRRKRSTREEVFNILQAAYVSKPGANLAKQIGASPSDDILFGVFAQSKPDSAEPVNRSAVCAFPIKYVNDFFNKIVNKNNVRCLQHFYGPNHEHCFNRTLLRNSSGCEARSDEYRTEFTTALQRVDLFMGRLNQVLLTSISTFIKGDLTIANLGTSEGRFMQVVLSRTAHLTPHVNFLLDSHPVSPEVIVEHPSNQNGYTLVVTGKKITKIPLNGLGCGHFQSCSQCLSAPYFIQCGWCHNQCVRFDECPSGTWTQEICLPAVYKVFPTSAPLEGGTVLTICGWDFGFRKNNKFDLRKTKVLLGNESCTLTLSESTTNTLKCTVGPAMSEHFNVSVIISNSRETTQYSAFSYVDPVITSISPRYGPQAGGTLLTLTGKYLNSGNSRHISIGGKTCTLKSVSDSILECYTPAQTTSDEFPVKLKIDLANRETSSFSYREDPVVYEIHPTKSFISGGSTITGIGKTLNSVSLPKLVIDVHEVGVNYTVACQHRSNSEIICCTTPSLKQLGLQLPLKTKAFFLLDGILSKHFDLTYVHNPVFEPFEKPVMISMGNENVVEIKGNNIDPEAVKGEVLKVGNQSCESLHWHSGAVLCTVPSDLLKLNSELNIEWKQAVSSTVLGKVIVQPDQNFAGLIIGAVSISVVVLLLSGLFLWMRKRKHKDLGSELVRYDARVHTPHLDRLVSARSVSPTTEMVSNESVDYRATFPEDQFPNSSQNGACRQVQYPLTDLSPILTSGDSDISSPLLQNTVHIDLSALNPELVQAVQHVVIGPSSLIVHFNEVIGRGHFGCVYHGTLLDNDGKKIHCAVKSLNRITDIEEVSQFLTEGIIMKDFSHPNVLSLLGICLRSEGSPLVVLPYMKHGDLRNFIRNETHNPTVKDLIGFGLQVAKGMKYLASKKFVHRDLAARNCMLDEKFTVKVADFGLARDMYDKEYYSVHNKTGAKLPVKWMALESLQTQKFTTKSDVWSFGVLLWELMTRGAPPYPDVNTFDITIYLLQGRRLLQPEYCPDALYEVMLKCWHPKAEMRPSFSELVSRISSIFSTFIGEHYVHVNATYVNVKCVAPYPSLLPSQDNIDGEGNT

As for `CNC(=O)c1ccc(-c2cnc3ncc(Cc4ccc5ncccc5c4)n3n2)cc1F` [capmatinib, reference compound], the “effect on MET, AKT and ERK phosphorylation” value in assay [1] is “blocked”. Moreover, the “effect on phosphorylation of MET” value in assay [2] is listed as “effectively blocked”.

B1: 1E7: anti-MET camelid VHH single-domain antibody from phage display, amino acid sequence SEQ ID NO:22 (protein)
VHH: EVQLVESGGGLVQPGGSLRLSCEASGFNFERYDMSWVRQAPGKGPEWVSRLNSFGRSTYYLDSVKGRFTVSRDNAQNMLYLQMNNLKPEDTAVYYCARSTDVSPGLSSWWTYEYDVWGQGTQVTVSS
For orientation: Kd means the equilibrium constant for the complex coming apart. For the molecule B1, the “binding to murine MET” value in the assay with murine MET is “modest cross-reactivity; also recorded: minimal binding”. Besides, the “ELISA signal on human MET” value with human MET [3] (dilution ELISA, unpurified VHH serially diluted) was “strongest MET signal; also recorded: saturating ELISA signals”. Further, in the assay with rhesus macaque MET, the “binding to rhesus macaque MET” value is recorded as “modest cross-reactivity; also recorded: minimal binding”. Moreover, the “kon and koff compared to the other clones” value in the assay with human MET [4] (BLI) is “highest kon and the lowest koff”. For the same molecule, the Ka with human MET [4] (unit not given) is recorded as 1.445 × 10^5. The Kd in the assay with human MET [4] (setting [5]) was 4.045 × 10^−2; in the assay with human MET [4] (nM, read-out: KD), 27 nM. Also, in the assay with human MET [4], the “binding affinity to human MET (in words)” value is “high affinity; also recorded: highest binding affinity”.

B2: 1A2: anti-MET camelid VHH single-domain antibody from phage display, amino acid sequence SEQ ID NO:24 (protein)
VHH: EAQLVESGGGLVQPGGSLRLSCEASGFNFERYDMSWVRQAPGKGPEWVSRLNSFGRSTYYLDSVKGRFTVSRDTAKSTFYLQMNNLKPEDAGVYYCARSTDVSPGLSSWWTYEYDVWGQGTQVTVSS
B2: the “binding to murine MET” value in the assay with murine MET is recorded as “modest cross-reactivity”. Moreover, the “specificity for human versus rhesus macaque and murine MET” value with human MET [3] is recorded as “did not show clear specificity”. Moreover, the “binding to rhesus macaque MET” value in the assay with rhesus macaque MET is recorded as “modest cross-reactivity”. For the same molecule, in the assay with human MET [4] (unit not given), the Ka is 1.865 × 10^5. Also, the Kd with human MET [4] (setting [5]) was 2.869 × 10^−2; in the assay with human MET [4] (nM, read-out: KD) it was 43 nM. The “binding affinity to human MET (in words)” value with human MET [4] is listed as “high affinity; also recorded: weaker binding affinities”.

B3: 2G9: anti-MET camelid VHH single-domain antibody from phage display, amino acid sequence SEQ ID NO:26 (protein)
VHH: EVQLVESGGALVQPGGSLRLSCAASGFTFGAYDMVWVRHATGKGPEWISFISNGGEEVSYASSVKDRFTISRDNAQNMLYLQMNNLKPEDTAVYYCARSTDVSPGLSSWWTYEYDVWGQGTLVTVSS
In the case of B3, in the assay with murine MET, the “binding to murine MET” value was “modest cross-reactivity”. In addition, the “specificity for human versus rhesus macaque and murine MET” value with human MET [3] is “did not show clear specificity”. Moreover, the “binding to rhesus macaque MET” value in the assay with rhesus macaque MET was “modest cross-reactivity”. Also, in the assay with human MET [4] (unit not given), the Ka is on record as 1.000 × 10^4. For the same molecule, the Kd with human MET [4] (setting [5]) was 1.500 × 10^−3; in the assay with human MET [4] (nM, read-out: KD), 159 nM. For the same molecule, the “binding affinity to human MET (in words)” value with human MET [4] is reported as “high affinity; also recorded: weaker binding affinities”.
